From patent US20240368282A1 (BIOSCEPTRE AUST, published 2024)

Target: T1, dysfunctional P2X7 receptor (human, UniProt Q99572 1-595)
T1 construct: Endogenous on cancer cell lines (MOLM-13, JeKo-1); also called nfP2X7; nfP2X7 receptor
T1 sequence: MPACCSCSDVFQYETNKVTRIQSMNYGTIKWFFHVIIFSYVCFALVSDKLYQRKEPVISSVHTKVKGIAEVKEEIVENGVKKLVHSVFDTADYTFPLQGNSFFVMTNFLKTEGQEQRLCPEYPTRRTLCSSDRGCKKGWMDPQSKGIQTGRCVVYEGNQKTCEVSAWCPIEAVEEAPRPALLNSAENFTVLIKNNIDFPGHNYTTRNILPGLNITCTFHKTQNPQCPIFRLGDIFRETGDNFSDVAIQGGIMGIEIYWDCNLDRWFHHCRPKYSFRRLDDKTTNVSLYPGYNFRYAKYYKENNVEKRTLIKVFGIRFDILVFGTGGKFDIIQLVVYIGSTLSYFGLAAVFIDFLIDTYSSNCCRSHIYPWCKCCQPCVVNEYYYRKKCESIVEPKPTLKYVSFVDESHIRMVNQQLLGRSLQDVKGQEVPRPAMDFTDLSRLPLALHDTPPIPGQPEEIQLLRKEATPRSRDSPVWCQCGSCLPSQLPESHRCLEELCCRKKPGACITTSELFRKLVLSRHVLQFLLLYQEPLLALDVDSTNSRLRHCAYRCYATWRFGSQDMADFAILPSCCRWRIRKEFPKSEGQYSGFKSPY
Experiment: flow cytometry, anti-HIS-FITC, MOLM-13 cells
Protocol: Indirect staining of artificial proteins on MOLM-13 cells via anti-HIS staining. […] Histogram overlay of HIS-FITC positivity on MOLM-13. […] HIS-ab was used according to manufacturer with 1 μl per test, target cells were incubated with 50 μl of supernatant from Lenti-X™ 293T cells for 10 min at room temperature. Supernatant harvested 48 h after transfection.

binding result: binds
B1: Orchestration molecule OR2-3 (nfP2X7), IgG1 format (antibody, V domains shown)
VH: EVQLLESGGGLVQPGGSLRLSCAASGFTFRNHDMGWVRQAPGKGLEWVSAISGSGGSTYYANSVKGRFTISRDNSKNTLYLQMNSLRAEDTAVYYCAEPKPMDTEFDYRSPGTLVTVSS
VL: DIQMTQSPSSLSASVGDRVTITCRASQYIYDYLNWYQQKPGKAPKLLIYAASYLQSGVPSRFSGSGSGTDFTLTISSLQPEDFATYYCQQYHHPSTFGQGTKVEIKR
notes: Tested as supernatant; also called OR2 paired to OR3
